The source of these data is PMC10397247.

Holding throughout (assay): two-hybrid library CCmax;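 further: natural log of median RNA to DNA barcode read ratio; higher means stronger binding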
The target in test [1] is T1, APC7524-AA.
T1 chain: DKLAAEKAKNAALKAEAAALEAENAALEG

Test [2] deals with T2, APC8401-AA.
T2 chain: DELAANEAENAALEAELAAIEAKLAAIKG
To be noted: mean of both orientations.

The target of test [3] is T3, APC8516-AA.
T3 chain: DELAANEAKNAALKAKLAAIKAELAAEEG
To be noted: mean of both orientations.

Test [4] deals with T4, APC9141-AA.
T4 chain: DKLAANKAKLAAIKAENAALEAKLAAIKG
To be noted: mean of both orientations.

The target of test [5] is T5, APC9182-AA.
T5 chain: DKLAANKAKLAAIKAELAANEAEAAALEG
To be noted: mean of both orientations.

Test [6] has as its target T6, APC9291-AA.
T6 chain: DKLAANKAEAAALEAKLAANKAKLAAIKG
To be noted: mean of both orientations.

Test [7] deals with T7, APC9806-AA.
T7 chain: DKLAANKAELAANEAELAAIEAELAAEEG
To be noted: mean of both orientations.

Test [8] concerns the target T8, 4H2725-AA.
T8 chain: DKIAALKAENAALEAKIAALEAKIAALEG

Test [9] has as its target T9, 4H2865-AA.
T9 chain: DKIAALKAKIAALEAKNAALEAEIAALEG
To be noted: mean of both orientations.

Test [10] concerns the target T10, 4H3009-AA.
T10 chain: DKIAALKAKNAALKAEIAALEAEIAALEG
To be noted: mean of both orientations.

Test [11] addresses T11, 4H3016-AA.
T11 chain: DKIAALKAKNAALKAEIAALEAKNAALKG
To be noted: mean of both orientations.

Test [12] has as its target T12, 4H310-AA.
T12 chain: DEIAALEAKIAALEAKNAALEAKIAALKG
To be noted: mean of both orientations.

Test [13] addresses T13, 4H3120-AA.
T13 chain: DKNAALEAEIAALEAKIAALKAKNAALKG
To be noted: mean of both orientations.

Test [14] addresses T14, 4H3130-AA.
T14 chain: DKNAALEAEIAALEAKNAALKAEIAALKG
To be noted: mean of both orientations.

Test [15] has as its target T15, 4H3165-AA.
T15 chain: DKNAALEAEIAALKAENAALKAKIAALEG
To be noted: mean of both orientations.

Test [16] addresses T16, 4H3381-AA.
T16 chain: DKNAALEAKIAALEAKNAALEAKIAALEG
To be noted: mean of both orientations.

Test [17] deals with T17, 4H3395-AA.
T17 chain: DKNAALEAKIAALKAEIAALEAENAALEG
To be noted: mean of both orientations.

The target of test [18] is T18, 4H3410-AA.
T18 chain: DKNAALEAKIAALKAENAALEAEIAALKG
To be noted: mean of both orientations.

The target of test [19] is T19, 4H3590-AA.
T19 chain: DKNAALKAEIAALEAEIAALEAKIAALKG
To be noted: mean of both orientations.

For test [20], the target named is T20, 4H3697-AA.
T20 chain: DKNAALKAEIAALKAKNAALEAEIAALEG

Test [21] deals with T21, 4H3753-AA.
T21 chain: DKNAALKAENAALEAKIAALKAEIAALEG
To be noted: mean of both orientations.

Test [22] concerns the target T22, 4H3865-AA.
T22 chain: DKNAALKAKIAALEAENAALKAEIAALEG
To be noted: mean of both orientations.

Test [23] concerns the target T23, 4H458-AA.
T23 chain: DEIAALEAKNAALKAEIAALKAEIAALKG
To be noted: mean of both orientations.

In test [24] the target is T24, 4H485-AA.
T24 chain: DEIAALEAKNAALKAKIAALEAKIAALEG
To be noted: mean of both orientations.

For test [25], the target named is T25, 4H536-AA.
T25 chain: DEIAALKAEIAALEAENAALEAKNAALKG
To be noted: mean of both orientations.

The target of test [26] is T26, 4H570-AA.
T26 chain: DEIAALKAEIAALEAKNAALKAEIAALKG
To be noted: mean of both orientations.

Test [27] has as its target T27, 4H629-AA.
T27 chain: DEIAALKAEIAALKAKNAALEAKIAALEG
To be noted: mean of both orientations.

Test [28] has as its target T28, 4H710-AA.
T28 chain: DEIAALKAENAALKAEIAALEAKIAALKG
To be noted: mean of both orientations.

The target in test [29] is T29, 4H745-AA.
T29 chain: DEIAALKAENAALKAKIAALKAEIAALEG
To be noted: mean of both orientations.

Test [30] concerns the target T30, 4H797-AA.
T30 chain: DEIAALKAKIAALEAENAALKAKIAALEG
To be noted: mean of both orientations.

The target in test [31] is T31, 4H850-AA.
T31 chain: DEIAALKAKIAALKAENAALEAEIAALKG
To be noted: mean of both orientations.

The target of test [32] is T32, 4H891-AA.
T32 chain: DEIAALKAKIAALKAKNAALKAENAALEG
To be noted: mean of both orientations.

In test [33] the target is T33, 4H909-AA.
T33 chain: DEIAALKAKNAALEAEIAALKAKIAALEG
To be noted: mean of both orientations.

For test [34], the target named is T34, 4H930-AA.
T34 chain: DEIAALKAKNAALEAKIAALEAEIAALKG
To be noted: mean of both orientations.

In test [35] the target is T35, 4H94-AA.
T35 chain: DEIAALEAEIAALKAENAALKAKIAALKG
To be noted: mean of both orientations.

The target of test [36] is T36, 4H3449-AA.
T36 chain: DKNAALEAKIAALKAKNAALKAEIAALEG

For test [37], the target named is T37, 4H3619-AA.
T37 chain: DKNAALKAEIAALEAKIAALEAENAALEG
To be noted: mean of both orientations.

In test [38] the target is T38, 4H3629-AA.
T38 chain: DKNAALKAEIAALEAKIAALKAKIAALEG
To be noted: mean of both orientations.

Test [39] concerns the target T39, 4H3777-AA.
T39 chain: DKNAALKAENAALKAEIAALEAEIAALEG
To be noted: mean of both orientations.

Test [40] has as its target T40, 4H380-AA.
T40 chain: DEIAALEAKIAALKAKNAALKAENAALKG
To be noted: mean of both orientations.

Test [41] has as its target T41, 4H3915-AA.
T41 chain: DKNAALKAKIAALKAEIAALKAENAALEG
To be noted: mean of both orientations.

Test [42] addresses T42, 4H3974-AA.
T42 chain: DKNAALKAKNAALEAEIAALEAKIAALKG
To be noted: mean of both orientations.

For test [43], the target named is T43, 4H432-AA.
T43 chain: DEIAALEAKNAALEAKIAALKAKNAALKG
To be noted: mean of both orientations.

Test [44] addresses T44, 4H446-AA.
T44 chain: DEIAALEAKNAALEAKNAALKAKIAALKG
To be noted: mean of both orientations.

The target of test [45] is T45, 4H63-AA.
T45 chain: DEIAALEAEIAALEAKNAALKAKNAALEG

In test [46] the target is T46, 4H662-AA.
T46 chain: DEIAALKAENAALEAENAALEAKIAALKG

In test [47] the target is T47, APC8191-AA.
T47 chain: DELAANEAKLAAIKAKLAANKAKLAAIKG

For test [48], the target named is T48, APC8910-AA.
T48 chain: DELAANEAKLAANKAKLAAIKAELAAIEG

Test [49] concerns the target T49, APC9096-AA.
T49 chain: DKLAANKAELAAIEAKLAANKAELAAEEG
To be noted: mean of both orientations.

Test [50] has as its target T50, APC9319-AA.
T50 chain: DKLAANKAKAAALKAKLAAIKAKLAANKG
To be noted: mean of both orientations.

The target of test [51] is T51, 4H55-AA.
T51 chain: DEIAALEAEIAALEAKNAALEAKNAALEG

Where two headings read alike, the source gives them in different places.

Regarding DKLAAEKAKNAALKAEAAALEAENAALEG [APC7524-AA], the interaction score is -1.65 in test [1]; -1.27 in test [2]; -1.83 in [3]; -1.69 in test [4]; -1.85 in test [5]; -1.72 in test [6]. In test [7], this molecule yielded an interaction score of -1.98.
For DKIAALKAENAALEAKIAALEAKIAALEG [4H2725-AA], the interaction score is 1.47 in test [8]; -1.08 in [9]; 1.76 in [10]; -0.188 in test [11]; -1.1 in test [12]; -1.56 in [13]. Also, the interaction score in test [14] was -0.815; in [15] it was -0.466; in [16], -1.94; in test [17] it was -1.64; in test [18] it was -1.72; in [19] it was -0.62. Moreover, the interaction score in test [20] is 1.2; in [21], -1.26; in test [22], -1.16; in test [23], 0.908; in test [24], 1.94; in [25] it was -1.71. Besides, the interaction score was -0.95 in [26]; -0.516 in [27]; 0.748 in test [28]; 1.36 in test [29]; -1.21 in [30]; -0.653 in [31]. Also, the interaction score in test [32] is -1.64; in test [33], -0.311; in [34], 0.224; in [35], -0.91.
With DKNAALEAKIAALKAKNAALKAEIAALEG [4H3449-AA], the interaction score in test [36] is -2.07; in [37] it was -1.01; in [38], -1.65; in [39], -2.46; in test [40], -1.96; in test [41], -1.74. In addition, the interaction score in test [42] is -0.638; in test [43], 0.499; in test [44] it was -1.41; in test [45], -1.51.
In the case of DEIAALKAENAALEAENAALEAKIAALKG [4H662-AA], the interaction score in [46] turned out to be 0.217.
Consider DELAANEAKLAAIKAKLAANKAKLAAIKG [APC8191-AA], for which the interaction score in test [47] is -1.48; in [48] it was -1.9; in test [49], -1.76; in [50], -1.88.
With DEIAALEAEIAALEAKNAALEAKNAALEG [4H55-AA], the interaction score in test [51] was -1.54; in test [46] (mean of both orientations), -1.57.
